Assay results: the supplement of paper PMC9170038

Test system: K4 kissing-loop RNA reporter
Experiment: apparent KD of K4 kissing-loop reporter; higher = weaker reporter binding
Conditions: Eterna round: R107
Procedure: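 RNA-MaP round R107: designed RNA switches with theophylline, tryptophan, arginine or FMN aptamers are transcribed on-chip within common flanks. They are titrated with a labelled K4 kissing-loop RNA reporter in RNA-MaP buffer (100 mM Tris pH 7.5, 80 mM KCl, 4 mM MgCl2), without ligand or with the indicated ligand. Median apparent KD per design.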

[1] = input ligand: theophylline 20 uM
[2] = input ligand: tryptophan 2.4 mM
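Note: bound reporter read as fluorescence of individual clusters on recovered sequencing chips by microscopy, with normalized cluster intensities fitted with a binding model.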

Sequence | apparent KD of K4 kissing-loop reporter (input ligand: FMN 200 uM) [nM] | apparent KD of K4 kissing-loop reporter (input ligand: arginine 13.2 mM) [nM] | apparent KD of K4 kissing-loop reporter (input ligand: none) [nM] | apparent KD of K4 kissing-loop reporter [1] [nM] | apparent KD of K4 kissing-loop reporter [2] [nM]
UGAUACCAGACUGAUACCAGCCACAGAGUCAAAGACUCUGAAAGGGAAACCAGUGAUGUUGGCCCUUGGCAGCAGUCUGGUAUCU [TheoBX 23 #SwitchBubble #StaticStem] | 502 | 412 | 493 | 382 | 431
UGAUACCAGACUGAUACCAGCCAGUGAUGUUGGCAAUAUCCAAGGUGAGUCAAAGACUCGGGCCCUUGGCAGCAGUCUGGUAUCU [TheoBX 7 #SwitchBubble #StaticStem] | 146 | 139 | 148 | 152 | 135
UGAUAGGACAGAAGGAGCGGAAGUGAUGUUUCCAAAAGGGUAAGGUGUCAAAAGACACCCUUCCAGGUAGGUCGCUGUCCUAUCU | 93.9 | 109 | 99 | 111 | 86.3
UGAUAGGACAGAAGGAGCGGGAGUGAUGUUCCCAAAAGUAUAAGGUGUCAAAAGACACCCUCCCAGGUAGGUCGCUGUCCUAUCU | 153 | 330 | 353 | 302 | 367
UGAUAGGACAGAAGGAGCGGUAGUGAUGUUACCAAAAGGGUAAGGUGUCAAAAGACACCCUGCCAGGUAGGUCGCUGUCCUAUCU | 103 | 89.9 | 99.1 | 83.4 | 87
UGAUUUAACUGAAGGAGCGGCAAUUGAUAAGGAAAUAUAGUGAUGUUAUAUAAGAGAGAGAGCCAGGUAGGUCGCAGAGGGAGGA [ExArgB.H] | 182 | 105 | 110 | 154 | 145
UGCUUUAUCAGAAGGAGCGGGUUGUUCAUAAUAAUAAUCAGUGAUGUUGAUAUAUGAUGAUUCCAGGUAGGUCGCUGAUAUAGCU [KL-XARG-B2] | 283 | 214 | 273 | 256 | 238
UGGAGUUGACGAAAAGUCAACUCCCGAGAAGGAGCGGACGAAAGUCCAGGUAGGUCGCUCGCUACCAGUGAUGUUGGUACGUAAA | 107 | 143 | 116 | 139 | 101
UGGAUAUAGUGAUGUUAUAUAGAGAUGGAUACCAGCAGAGAGAAUUGCCCUUGGCAGCCGAAAGAAGUAUCAUUAGAGAAGAAUG [ExTheophyl.Ai] | 208 | 180 | 253 | 214 | 210
UGGAUUAGGACGGCCGCCACUACGCUGGCAUGAGUGAUGUUCUAAGGCUUGUCAAAGAUCCAGAGUAGGACCGGGUCCAAUGACU [theeternabot_exclusion_KL_Trp_B_38] | 293 | 225 | 275 | 261 | 271
UGGUUAAGCAGUGAUGUUGCAAGUGAUGAUACCAGUUAAGAAGAGAACCCUUGGCAGCAUAAAGUGCGCUCUGAUGAGUGUGCUU [whbob_SS_Theo_A_w55] | 165 | 130 | 146 | 176 | 165
UGUACCGAGUCAGGAUAUACCGUCGAAAGACGAAAUGGAGUGAUGUUCCUUAAACUGCGAAAGCAGGUAGAAGGGACUUGGUACU [FmnBS 30 #SwitchBubble #StaticStem #DoubleMagnetSystem] | 165 | 263 | 267 | 263 | 262
UGUACCGAGUCAGGAUAUAGCGUCGAAAGACGAAAUGGAGUGAUGUUCCUUAAACUGCGAAAGCAGCUAGAAGGGACUUGGUACU [FmnBS 28 #SwitchBubble #StaticStem #DoubleMagnetSystem] | 153 | 234 | 246 | 250 | 239
UGUACCGAGUCAGGAUAUGGCGUCGAAAGACGAAUCCUAGUGAUGUUAGUGAUCUGCGAAAGCAGUCCAGAAGGGACUUGGUACU [FmnBS 26 U50] | 199 | 321 | 334 | 307 | 344
UGUAUGUGAUGUGAUACCAGUGAAGAGCCAGUGAUGUUGGUAGAACUGGUAUAUAAAUAACACCCUUGGCAGCACAAUCACGUAC [whbob_Ex_Theo_B_sa99] | 289 | 243 | 286 | 320 | 314
UGUAUGUGAUUUGAUACCAGACCAGCUGGUGGUACCUGAGUGAUGUUCGGGAUGGUUUGGGUCCCUUGGCAGCAAAUCGCAUACU [KL-SSTheoB20] | 251 | 144 | 164 | 148 | 170

Sequence | apparent KD of K4 kissing-loop reporter (input ligand: FMN 200 uM) [nM] | apparent KD of K4 kissing-loop reporter (input ligand: arginine 13.2 mM) [nM] | apparent KD of K4 kissing-loop reporter (input ligand: none) [nM] | apparent KD of K4 kissing-loop reporter [1] [nM] | apparent KD of K4 kissing-loop reporter [2] [nM]
UGUCAUGGAAACAUGAACGUUAAAAUAAAUCGAGGACCGGUACGGCCGCCACUCGUAUAGCGGUCAGUGAUGUUGACUGUAGUAC [KL-SSTryp-A form2 sub11 #dotplot2>1] | 107 | 110 | 109 | 109 | 101
UGUCAUUGGUCGGCCGCCACUAUAAUAAAAGAGUGAUGUUCUAAAAGACGGACAAAAGUCUGUCGUAGGACCGGGACCGAUGACU [TrypBS 26 #SwitchBubble #StaticStem] | 1100 | 551 | 805 | 916 | 455
UGUCAUUGGUCGGCCGCCACUAUAUAAAAGAGUGAUGUUCUAAAGACGGAUCGAAAGAUCUGUCAUAGGACCGGGACCGAUGACU [TrypBS 20 #SwitchBubble #StaticStem] | 293 | 204 | 308 | 294 | 1140
UGUCAUUGGUCGGCCGCCACUUCAAGGUCAAAGACCAGAGUGAUGUUCUUGCACAAAGUGCUUAGAAGGACCGGGACCGAUGACU [TrypBS 13 #SwitchBubble #K4Middle] | 738 | 467 | 625 | 413 | 622
UGUCAUUGGUCGGCCGCCACUUCGUAUGAAGUGAUGUUUUGUAGAUUGUGUUGAAAGGUAUGGUGAAGGACCGGGACCGAUGACU [FiskerMod 22 - Jieux - Same State - Tryptophan B] | 516 | 266 | 765 | 203 | 508
UGUCAUUGGUCUGAUACCAGAAGAAUCUGGAGUGAUGUUCCAAGUCGAUCAAAAGAUCGCUUCCCUUGGCAGCAGACCGAUGACU [TheoBS 24 #SwitchBubble 13 #StaticStem] | 315 | 291 | 300 | 188 | 298
UGUCAUUGGUCUGAUACCAGCUUGAUCGGAAAACGAUCUGCUGGAGUGAUGUUCCAAUAAAGCCCUUGGCAGCAGACCGAUGACU [TheoBS 7 #SwitchBubble #StaticStem] | 854 | 569 | 991 | 961 | 763
UGUCAUUGGUCUGAUACCAGUUGAUAAACUGGAGUGAUGUUCCAAGAACGAGAAACUCGCAACCCUUGGCAGCAGACCGAUGACU [TheoBS 17 #SwitchBubble 13 #StaticStem] | 302 | 66.9 | 170 | 400 | 132
UGUGUUGUUUUGAUGUUUGUUGUAAAAUGGCAGGAUAUCGUAGAGGCGAGAAGGGCUUUUAUGCGUUAUGAGUGAUGUUUGUAGG [zvvczmullin] | 338 | 283 | 352 | 340 | 263
UGUGUUUACCUGACUCAGUGAUGUUGAGAAGGAGCGUGCUAAGGCACAGGUAGGUCGCUCAACCUAAAUUCAGGUGAGCACUAAA | 305 | 351 | 197 | 274 | 207
UGUUAUGUAUCAGGAUAUUAGUGAUGUUUGUUUAUGUUAGUGAUGUUGAUAUUUGUUUUAUGUAUUUAAGAAGGGAUUGAGAUGU [dcdmullin] | 55.4 | 19.8 | 45.1 | 27.7 | 50.9
UGUUUUUACUGAAGGAGCGGCAAUUGAUACGUAGAUAUAGUGAUGUUAUAUAAGAUAGAGAGCCAGGUAGGUCGCAGAUUUUUUC [ExArgB.Y] | 179 | 201 | 164 | 172 | 136
UUAAGGGUCCGAGGAUAUCUCCCAGUGAUGUUGGGCGAUACGGCCCUUAAGACUAAUGGUUGAAGGAGAGAAGGCGGCUCCCGAU [Edmaisle] | 146 | 120 | 128 | 136 | 112
UUAAUAAUUCAAGGAUAUGUUUUUUUUUUCGAGUGAUGUUCGGAAUUAAUAAAUUUAAAAGAUUAUACAGAAGGUGAUAAAUAGU [Cynwulf-mod#1] | 103 | 91 | 88.3 | 103 | 88.6
UUACAGCCCAGUGAUGUUGGGUAGCGGCGGCGAGGACCGGUACGGCCGCCACUCGGCGCACAGGCGGAGUGAUGUUUUGCUUAAA [Same State Tryptophan A GF 11] | 718 | 590 | 894 | 927 | 476
UUACAGGAACAAGGAUAUGGCGUUGUAGUGAUGUUACAGCGAAGAGCUCCACGCGAUCGGACAAAACCAGAAGGUGUAUGGAAUC [theeternabot_exclusion_KL_FMN_B_42] | 155 | 108 | 127 | 116 | 112
